Target: T1, Human uPAR (uPA receptor), recombinant (human, UniProt Q03405 23-305)
T1 construct: probably a soluble form without the GPI anchor (surmise)
Assay: SPR; uPAR coupled to the sensor surface (1000 RU, 15 ug/mL in 10 mM Na acetate pH 4.5); 4 nM purified uPA variant (pro-uPA, ATF or GFD) passed over with or without RNA aptamer; bound amount after 80 s injection
Settings: both partners purified

T1 sequence (Q03405 23-305): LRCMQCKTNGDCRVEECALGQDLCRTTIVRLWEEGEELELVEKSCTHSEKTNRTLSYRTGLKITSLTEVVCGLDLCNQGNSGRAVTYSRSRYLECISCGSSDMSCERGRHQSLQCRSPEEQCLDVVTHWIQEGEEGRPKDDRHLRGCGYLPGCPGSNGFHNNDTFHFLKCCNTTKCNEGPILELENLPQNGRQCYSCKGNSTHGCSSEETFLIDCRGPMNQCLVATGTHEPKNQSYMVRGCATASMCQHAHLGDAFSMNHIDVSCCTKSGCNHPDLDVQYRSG

binding result: binds
B1: GFD^4-43 domain of uPA (domain or fragment, human, UniProt P00749 24-63, looked up)
chain: LHQVPSNCDCLNGGTCVSNKYFSNIHWCNCPKKFGGQHCE
notes: human uPA epidermal growth factor-like domain, residues 4-43; numbers count on: the mature protein; also called growth factor domain; source: excised from recombinant pro-uPA by Glu-C digestion, purified by size exclusion chromatography
